This is an account of results in patent US12662530 (SPHINGOTEC, dated 2026).

Test in all cases: cell-based or functional assay
In assay [1] the target is T1, Adrenomedullin 1-52-Gly (ADM-Gly) (human, not fully specified).
T1 peptide: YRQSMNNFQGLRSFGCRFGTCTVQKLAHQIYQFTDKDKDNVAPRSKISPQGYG

In assay [2] the target is T2, human recombinant adrenomedullin receptor (CRLR+RAMP3) (human).
The target in assay [3] is T2, human recombinant adrenomedullin …. The source holds these as a separate data set.

Read-outs that look alike come from different tables or passages of the source. Where no end group is shown, it is not given here.

T2 sequence (Q16602 whole entry, chain 1 of 2): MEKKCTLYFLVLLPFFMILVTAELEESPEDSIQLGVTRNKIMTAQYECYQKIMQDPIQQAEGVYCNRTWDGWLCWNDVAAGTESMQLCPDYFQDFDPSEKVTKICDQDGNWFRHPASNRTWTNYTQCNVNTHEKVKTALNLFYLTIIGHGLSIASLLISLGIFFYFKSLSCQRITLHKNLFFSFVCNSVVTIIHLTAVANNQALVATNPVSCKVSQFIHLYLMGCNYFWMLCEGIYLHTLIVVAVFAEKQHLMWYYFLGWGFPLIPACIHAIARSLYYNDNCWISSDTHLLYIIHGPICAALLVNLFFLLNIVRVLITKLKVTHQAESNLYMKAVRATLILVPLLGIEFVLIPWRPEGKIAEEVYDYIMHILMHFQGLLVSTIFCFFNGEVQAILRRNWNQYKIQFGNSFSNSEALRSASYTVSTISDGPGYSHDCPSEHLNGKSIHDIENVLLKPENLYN
T2 sequence (O60896 whole entry, chain 2 of 2, further chain): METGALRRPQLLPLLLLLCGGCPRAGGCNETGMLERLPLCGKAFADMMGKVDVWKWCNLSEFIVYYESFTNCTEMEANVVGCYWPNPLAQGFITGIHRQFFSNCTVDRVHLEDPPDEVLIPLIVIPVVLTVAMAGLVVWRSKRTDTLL

B1: HAM8101 (antibody, human IgG1, kappa, V domains shown)
VH: QVQLVQSGAEVKKPGSSVKVSCKASGYTFSRYWIEWVRQAPGQGLEWIGEILPGSGSTNYNQKFQGRVTITADTSTSTAYMELSSLRSEDTAVYYCTEGYEYDGFDYWGQGTTVTVSS
VL: DVVLTQSPLSLPVTLGQPASISCRSSQSIVYSNGNTYLEWYLQRPGQSPRLLIYRVSNRFSGVPDRFSGSGSGTDFTLKISRVEAEDVGVYYCFQGSHIPYTFGGGTKLEIKR
For B1, the “formation of bio-ADM from ADM-Gly by native human plasma PAM after 90 minutes, with 300 µg/mL HAM8101 against without” value in assay [1] was found to be 4 fold.

On to YRQSMNQGSRSNGCRFGTCTFQKLAHQIYQLTDKDKDGMAPRNKISPQGY-NH2 (ends and bridges not checked) [Mouse ADM 1-50], for which the “EC50 (read off the curve), cAMP stimulation” value in assay [2] is approximately 0.08 nM.

B2: mature human Adrenomedullin (Human ADM 1-52) (peptide)
peptide: YRQSMNNFQGLRSFGCRFGTCTVQKLAHQIYQFTDKDKDNVAPRSKISPQGY-NH2
modifications: ends and bridges not checked
Consider B2, for which the “EC50 (read off the curve), cAMP stimulation” value in assay [3] is approximately 1 nM.
